Assay [1] addresses T1, thermolysin from B. thermoproteolyticus Rokko (Bacillus thermoproteolyticus Rokko, UniProt P00800 233-548).
T1 sequence (looked up): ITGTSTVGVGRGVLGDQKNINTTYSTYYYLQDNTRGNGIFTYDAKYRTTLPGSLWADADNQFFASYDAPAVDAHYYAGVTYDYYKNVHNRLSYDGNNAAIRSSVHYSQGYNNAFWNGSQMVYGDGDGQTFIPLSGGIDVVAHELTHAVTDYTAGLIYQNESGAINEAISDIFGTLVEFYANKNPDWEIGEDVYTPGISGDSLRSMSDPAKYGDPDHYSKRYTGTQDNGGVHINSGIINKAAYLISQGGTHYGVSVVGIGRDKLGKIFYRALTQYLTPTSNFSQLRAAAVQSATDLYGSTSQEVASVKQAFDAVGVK
Put plainly: cell-based or functional assay.

Assay [2] deals with T2, aureolysin isoform I, mature catalytic domain (A209–E509) (Staphylococcus aureus (strain V8-BC10), UniProt P81177 209-509).
T2 sequence (looked up): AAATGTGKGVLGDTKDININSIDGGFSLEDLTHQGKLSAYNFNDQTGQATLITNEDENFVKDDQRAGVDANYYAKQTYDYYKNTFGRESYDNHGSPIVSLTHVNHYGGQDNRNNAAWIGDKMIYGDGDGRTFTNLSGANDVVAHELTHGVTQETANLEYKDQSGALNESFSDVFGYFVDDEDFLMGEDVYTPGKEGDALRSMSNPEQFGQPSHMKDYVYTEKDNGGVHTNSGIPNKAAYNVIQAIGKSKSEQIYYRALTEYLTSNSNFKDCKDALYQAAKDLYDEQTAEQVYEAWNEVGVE
Put plainly: enzyme inhibition assay.

B1: R58E-IMPI (natural protein, Galleria mellonella)
chain: GMSIVLICNGGHEYYECGGACDNVCADLHIQNKTNCPIINIECNDKCYCEDGYARDVNGKCIPIKDCPKIRS
As for B1, in assay [1], the “inhibition of thermolysin, against the wild type” value was around 200 fold.

B2: I57F-IMPI (natural protein, Galleria mellonella)
chain: GMSIVLICNGGHEYYECGGACDNVCADLHIQNKTNCPIINFRCNDKCYCEDGYARDVNGKCIPIKDCPKIRS
In assay [2], B2 gave a Ki of 346 nM.

By Ki is commonly meant the equilibrium dissociation constant of an inhibitor or competing ligand from its target.

These data come from article PMC9002140 (Computational and Structural Biotechnology Journal, 2022).
